{
  "source": "paper PMC12844804",
  "about": "“Paving the Way for CCK2R-Targeted Peptide Receptor Radionuclide Therapy with [^177Lu]Lu-DOTA-MGS5 in Patients with Small Cell Lung Cancer” (Pharmaceutics, 2026)",
  "key": {"[1]": {"settings": "human, in vivo, iv; cited from earlier work", "experimental": "Due to disease progression observed at the radiologic follow-up examination during fourth-line treatment with topotecan (Figure 4a–f) and following confirmation of intense tracer uptake on [^68Ga]Ga-DOTA-MGS5 PET/CT, the patient underwent a preliminary dosimetric evaluation with [^177Lu]Lu-DOTA-MGS5 to calculate the absorbed dose to organs at risk and the tumor. After the intravenous administration of 1.5 GBq [^177Lu]Lu-DOTA-MGS5 (corresponding to a peptide dose of less than 100 µg), scintigraphic images were acquired at 30 min, 4 h, 24 h, 72 h and 96 h p.i. (Supplementary Figure S3A). As prev ..."}, "[2]": {"system": "patient with ED-SCLC", "type": "in vivo, human", "source_text": "A patient diagnosed with SCLC (initial stage: T4 N3 M1b with primary tumor of the left central lung and possible metastasis to the left adrenal gland) completed first-line systemic therapy with carboplatin/etoposide/atezolizumab (schedule: day 1–day 3, every three weeks) followed by maintenance therapy with atezolizumab and prophylactic cranial irradiation (fractions of 2 Gy each, reaching a total dose of 30 Gy; cognitive preservation with memantine). Subsequently, the entire primary tumor region, including the selectively involved lymph nodes on the left central side, was irradiated (fractions of 2 Gy, resulting in a total dose of 60 Gy). After completing EBRT approximately six months after diagnosis, the disease remained stable for the following four months. Ten months after diagnosis, a new metastasis to the right adrenal gland occurred, and re-induction therapy with carboplatin/etoposide/atezolizumab was administered (a total of four cycles; schedule: day 1–day 3, every three weeks). In the follow-up CT scan, progressive disease was identified again, and third-line therapy with cyclophosphamide/doxorubicin/vincristine was initiated (a total of four cycles; schedule: day 1–day 2, every three weeks). […] After 2 cycles, the disease again progressed. This time, there was progression of the primary tumor, liver metastases and new lymph node metastases. Thus, alternative image-guided treatment strategies were evaluated. […] Thus, the patient was considered eligible for PRRT with [^177Lu]Lu-DOTA-MGS5. PRRT was performed under the responsibility of the treating physician and after tumor board approval. According to the Austrian Medicines Act (Arzneimittelgesetz §8), named patient use (“Heilversuch”) was not subject to authorization by or notification to the authorities. Written informed consent was obtained from the patient. All procedures were in accordance with the principles of the 1964 Declaration of Helsinki and its subsequent amendments. The retrospective analysis of the data of the patient was exempted from consultation with the Ethics Committee by the Medical University of Innsbruck.\nAdequate hydration was ensured through intravenous infusion of 1000 mL of 0.9% saline solution at a rate of 300 mL/h, starting 30 min before and continuing for 2 h after treatment administration. The patient received prophylactic antiemetic therapy with 4 mg ondansetron, as well as 4 mg dexamethasone and 40 mg pantoprazole, given 20 min before the treatment. Prophylactic antiemetic therapy was repeated 12 h after therapy.\n[^177Lu]Lu-DOTA-MGS5 was administered intravenously via a dedicated peristaltic infusion pump system over a period of 15–20 min. The patient was discharged at the third day following therapy. The treatment was repeated approximately every four weeks.\nWhole-body SPECT/CT after each therapy cycle was performed using a dual-head SPECT/CT system (NM/CT 870 DR; GE Healthcare, Chicago, IL, USA) approximately 24 h after injection of [^177Lu]Lu-DOTA-MGS5. The acquisition consisted of 60 projections over 360° with an angular step of 6° and a dwell time of 20 s per projection. A medium-energy general-purpose collimator was used. The primary energy window was set to 187.2–228.8 keV and the scatter window to 169.1–186.9 keV. SPECT images were reconstructed using the manufacturer’s proprietary algorithms (OSEM with resolution recovery), using 2 iterations and 10 subsets and no post-reconstruction filtering. The reconstructed matrix size was 128 × 128, with a pixel size of 4.42 mm. Photon scatter correction was performed using the dual energy window method, and attenuation correction was performed using a low-dose CT scan acquired at 120 kVp, 30 mAs effective, with CareDose4D activated. Whole-body planar imaging was performed in anterior and posterior views using the same system. The scan was conducted in supine position, feet-first orientation. The table traversed 1.14 m at a speed of 10 cm/min. […]"}, "[3]": {"system": "A431-CCK2R cells", "type": "cell-based, human", "settings": "~250 kBq, 2 nM/well; for relative viability: viability 72 h after treatment, % of non-irradiated control, n = 3", "experimental": "To investigate the cytotoxic effect of [^177Lu]Lu-DOTA-MGS5 on A431-CCK2R cells in comparison with EBRT, cells were counted using a TC20 automated cell counter (Bio-Rad Laboratories, Hercules, CA, USA), seeded at a density of 1 × 10^5 cells per well in 6-well plates and incubated at 37 °C with 5% CO2. After 24 h, cells were irradiated with varying doses (2, 4 and 8 Gy) using a linear accelerator (Elekta Precise, Elekta Oncology Systems, Crawley, England, UK) or by incubation with [^177Lu]Lu-DOTA-MGS5 (~250 kBq, 2 nM/well) for 4 and 24 h followed by replacement with fresh medium. Incubation periods of 4 h and 24 h were selected based on the previously established internalization kinetics and the stability data obtained for [^177Lu]Lu-DOTA-MGS5 [25]. At the time point of 72 h after treatment, cell viability was assessed using a Beckman Coulter Vi-CELL AS cell viability analyzer (Beckman Coulter, Fullerton, CA, USA). The supernatant from each well was collected in 15 mL Falcon tubes. Cells were then washed twice with 1 mL of serum-free medium, and the wash fractions were combined with the respective supernatants. Trypsin (300 µL) was added to each well, and plates were incubated until detachment. Following detachment, 1 mL of medium was added to each well, and cells were rinsed and transferred to their respective Falcon tubes. This washing step was repeated twice, reaching a total volume of 3 mL. Cells were pelleted by centrifugation in a benchtop centrifuge (Megafuge™ 8; Thermo Fisher Scientific, Waltham, MA, USA) at 2000 rpm for 8 min at 4 °C, and the supernatant was discarded. Pellets were resuspended in 1 mL of cold serum-free medium. Samples were loaded into the Vi-CELL AS analyzer according to the manufacturer’s instructions. The number of viable cells in each treatment group was normalized to the mean number of viable cells in the non-irradiated control group and expressed as a percentage of the control."}, "[4]": {"system": "A431-CCK2R cells", "settings": "~100 nM, 24 h treatment, 12 days colony formation, mean ± SD of four independent experiments in triplicate", "procedure": "After this treatment, the medium was aspirated and the cells were gently washed twice with phosphate-buffered saline (PBS) and then incubated at 37 °C for 12 days to allow colony formation. At the end of the incubation period, the culture medium was removed, and the wells were gently rinsed twice with PBS.\nColonies were fixed by adding 1 mL of a 3:1 methanol–glacial acetic acid solution to each well and incubated for 20 min at room temperature in a chemical hood. The solution was removed and the fixed cells gently rinsed twice with 1 mL of PBS.\nStaining was performed using 1 mL of Giemsa stain (modified solution; Sigma-Aldrich, St. Louis, MO, USA, CAS No. 32884) diluted 3.5:10 in Milli-Q water. Plates were incubated with the staining solution for 2 h at room temperature. After staining, wells were rinsed twice with Milli-Q water, and plates were inverted on absorbent paper to air-dry.\nColonies were counted manually, with each visible purple-stained cluster considered as one colony. […] Each data point represents the mean ± standard deviation (SD) of four independent experiments, each performed in triplicate."}, "[5]": {"settings": "human, in vivo", "experimental": "For dosimetry, both planar and SPECT/CT imaging were performed at nominal time points of 30 min and 4, 24, 72 and 96 h post-injection (p.i.). The acquisition protocol for the first three time points followed the procedure described above. For the 72 and 96 h scans, the dwell time per projection for SPECT acquisition was increased to 24 s, and the planar scan speed was reduced to 8 cm/min to compensate for the reduced count statistics at later time points. The gamma camera sensitivity was calibrated according to the GE Healthcare-recommended protocol (DICOM Conformance Statement: NM General Purpose 600/800 Series, Rev. 15, 2018). A Petri dish containing a known activity of lutetium-177 was used as the calibration source, yielding a calibration factor of 5.2 cps/MBq. To correct for partial volume effects (PVEs), recovery coefficients (RCs) were determined using an IEC-NEMA phantom with fillable spheres of varying diameters, and a Jaszczak phantom containing a 60 mm sphere (Data Spectrum Corporation, Hillsborough, NC, USA). For each sphere, RCs were calculated, and a logarithmic regression model was fitted to generate a recovery curve. Two selected well-delineable lesions were segmented on 24 h p.i. SPECT images using a 41% isocontour threshold in Affinity 3.0 (Hermes Medical Solutions, Stockholm, Sweden). Subsequently, SUVmax values normalized to body weight were computed and corrected for PVEs using the corresponding RCs. […] (Supplementary Figure S3A). […] Additionally, the mean absorbed dose to the tumor was 12.5 ± 10.2 Gy/GBq (range: 1.2-28 Gy/GBq) across five well-delineated lesions. The time-activity curves for kidneys, stomach wall and two selected lesions were fitted and extrapolated using non-linear regression. […] A tri-exponential function was used for the kidneys, while a bi-exponential model (with k3 = 0) was applied for the stomach wall and the two lesions. […]"}, "[6]": {"system": "patients with advanced MTC", "settings": "human, in vivo; cited from earlier work", "experimental": "So far, ^177Lu-labeled peptides targeting CCK2R have been used for PRRT in patients with advanced MTC. […] In a dose escalation study, six patients with advanced MTC were treated with up to three to four cycles of [^177Lu]Lu-PP-F11N (3 × 6 GBq or 4 × 8 GBq) ..."}},
  "note": "Where two headings read alike, the source gives them in different places.",
  "data": [
    {"compound": "CCCC[C@@H](C(=O)N[C@@H](CC(=O)O)C(=O)N[C@@H](Cc1cccc2ccccc12)C(N)=O)N(C)C(=O)[C@H](Cc1c[nH]c2ccccc12)NC(=O)CNC(=O)[C@H](Cc1ccc(O)cc1)NC(=O)[C@H](C)NC(=O)[C@@H](CCC(=O)O)NC(=O)CN1CCN(CC(=O)O)CCN(CC(=O)O)CCN(CC(=O)O)CC1", "note": "[[^177Lu]Lu-DOTA-MGS5, metal not drawn]", "values": [
      {"measurement": "absorbed dose to the bone marrow", "setting": "[1]", "result": 0.022, "unit": "Gy/GBq"},
      {"measurement": "absorbed dose to the kidneys", "setting": "[1]", "result": 0.28, "unit": "Gy/GBq"},
      {"measurement": "absorbed dose to the stomach", "setting": "[1]", "result": 0.42, "unit": "Gy/GBq"},
      {"measurement": "absorbed dose to the tumor, range", "setting": "[1]", "result": "1.2–28 Gy/GBq"},
      {"measurement": "mean absorbed dose to the tumor", "setting": "[1]", "result": "12.5 ± 10.2", "unit": "Gy/GBq"},
      {"measurement": "change of SUVmax in two well-delineated lesions", "setting": "[2]; SPECT 24 h p.i., dosimetry and first three cycles, PVE corrected", "result": "only a minor decrease"},
      {"measurement": "uptake in new disseminated liver metastases", "setting": "[2]; SPECT/CT after the fourth cycle", "result": "negative"},
      {"measurement": "clinical symptoms", "setting": "[2]; after the second administration", "result": "improvement"},
      {"measurement": "lesion uptake on serial SPECT/CT after each treatment cycle", "setting": "[2]; approximately 24 h p.i.", "result": "overall stable uptake"},
      {"measurement": "follow-up contrast-enhanced CT finding", "setting": "[2]; at the fourth cycle of PRRT", "result": "continued disease progression"},
      {"measurement": "GGT", "setting": "[2]; human, in vivo", "result": 74, "unit": "U/L"},
      {"measurement": "GOT", "setting": "[2]; human, in vivo", "result": 44, "unit": "U/L"},
      {"measurement": "GPT", "setting": "[2]; human, in vivo", "result": 14, "unit": "U/L"},
      {"measurement": "Karnofsky Index", "setting": "[2]; human, in vivo", "result": 100, "unit": "%"},
      {"measurement": "absorbed dose delivered to the tumor lesions during PRRT, range", "setting": "[2]; human, in vivo", "result": "21-482 Gy"},
      {"measurement": "absorbed dose of healthy tissue, bone marrow", "setting": "[2]; human, in vivo", "result": 0.4, "unit": "Gy"},
      {"measurement": "absorbed dose of healthy tissue, kidneys", "setting": "[2]; human, in vivo", "result": 5, "unit": "Gy"},
      {"measurement": "absorbed dose of healthy tissue, stomach", "setting": "[2]; human, in vivo", "result": 7, "unit": "Gy"},
      {"measurement": "adverse effect following the first administration", "setting": "[2]; human, in vivo", "result": "mild nausea"},
      {"measurement": "creatinine", "setting": "[2]; human, in vivo", "result": 0.64, "unit": "mg/dL"},
      {"measurement": "eGFR", "setting": "[2]; human, in vivo", "result": "> 60", "unit": "mL/min/1.73 m^2"},
      {"measurement": "hematological, renal or hepatic toxicities in laboratory tests", "setting": "[2]; human, in vivo", "result": "no hematological, renal or hepatic toxicities"},
      {"measurement": "mean absorbed dose delivered to the tumor lesions during PRRT", "setting": "[2]; human, in vivo", "result": 215, "unit": "Gy"},
      {"measurement": "weight loss", "setting": "[2]; human, in vivo", "result": "approximately 2 kg"},
      {"measurement": "NSE levels", "setting": "[2]; tumor marker during four administrations", "result": "slight reduction after the first three administrations but increased by the fourth administration"},
      {"measurement": "EBRT dose with comparable response", "setting": "[3]; 4 h and 24 h incubation, compared with EBRT 2, 4 and 8 Gy", "result": "2-4 Gy"},
      {"measurement": "relative viability", "setting": "[3]; 4 h incubation", "result": "58.5 ± 3.3", "unit": "%"},
      {"measurement": "relative viability", "setting": "[3]; 24 h incubation", "result": "55.5 ± 8.3", "unit": "%"},
      {"measurement": "clonogenic survival", "setting": "[4]; 2 MBq/well", "result": "54.9 ± 10.9", "unit": "%"},
      {"measurement": "clonogenic survival", "setting": "[4]; 250 kBq/well", "result": "82.7 ± 6.5", "unit": "%"},
      {"measurement": "tracer clearance kinetics, CCK2R-positive stomach wall", "setting": "[5]", "result": "slower and more prolonged washout"},
      {"measurement": "tracer clearance kinetics, kidneys", "setting": "[5]", "result": "rapid initial decline in activity"},
      {"measurement": "tracer clearance kinetics, thoracic wall lesion and gastrointestinal tract lesion", "setting": "[5]", "result": "gradual mono-exponential decrease in activity"}
    ]},
    {"compound": "DOTA-(DGlu)6-Ala-Tyr-Gly-Trp-Nle-Asp-Phe-NH2 [[^177Lu]Lu-PP-F11N, ^177Lu-labeled CCK2R-targeting agonist]", "values": [
      {"measurement": "dose-limiting toxicity", "setting": "[6]", "result": "without signs of dose-limiting toxicity"},
      {"measurement": "median absorbed tumor dose", "setting": "[6]", "result": 0.88, "unit": "Gy/GBq"}
    ]}
  ]
}
